Test results as given in publication PMC3527552.

Test: cell lysate anti-HA Western blot
Settings: glycan lost; control: untreated

B1: OATP1B1: tunicamycin 0.5 μg/ml, 42 h (protein)
parent chain: MDQNQHLNKTAEAQPSENKKTRYCNGLKMFLAALSLSFIAKTLGAIIMKSSIIHIERRFEISSSLVGFIDGSFEIGNLLVIVFVSYFGSKLHRPKLIGIGCFIMGIGGVLTALPHFFMGYYRYSKETNINSSENSTSTLSTCLINQILSLNRASPEIVGKGCLKESGSYMWIYVFMGNMLRGIGETPIVPLGLSYIDDFAKEGHSSLYLGILNAIAMIGPIIGFTLGSLFSKMYVDIGYVDLSTIRITPTDSRWVGAWWLNFLVSGLFSIISSIPFFFLPQTPNKPQKERKASLSLHVLETNDEKDQTANLTNQGKNITKNVTGFFQSFKSILTNPLYVMFVLLTLLQVSSYIGAFTYVFKYVEQQYGQPSSKANILLGVITIPIFASGMFLGGYIIKKFKLNTVGIAKFSCFTAVMSLSFYLLYFFILCENKSVAGLTMTYDGNNPVTSHRDVPLSYCNSDCNCDESQWEPVCGNNGITYISPCLAGCKSSSGNKKPIVFYNCSCLEVTGLQNRNYSAHLGECPRDDACTRKFYFFVAIQVLNLFFSALGGTSHVMLIVKIVQPELKSLALGFHSMVIRALGGILAPIYFGALIDTTCIKWSTNNCGTRGSCRTYNSTSFSRVYLGLSSMLRVSSLVLYIILIYAMKKKYQEKDINASENGSVMDEANLESLNKNKHFVPSAGADSETHC
With B1 the expression_or_secretion was “decreases”.
